The values that follow come from article PMC3479203.

The assay has as its target C-terminal SPA-tagged RpoB fusion protein (B. subtilis) (UniProt P37870). Description: affinity purification with mass spectrometry.
Chain of UniProt P37870 (P37870 whole entry, the tested form may be a part): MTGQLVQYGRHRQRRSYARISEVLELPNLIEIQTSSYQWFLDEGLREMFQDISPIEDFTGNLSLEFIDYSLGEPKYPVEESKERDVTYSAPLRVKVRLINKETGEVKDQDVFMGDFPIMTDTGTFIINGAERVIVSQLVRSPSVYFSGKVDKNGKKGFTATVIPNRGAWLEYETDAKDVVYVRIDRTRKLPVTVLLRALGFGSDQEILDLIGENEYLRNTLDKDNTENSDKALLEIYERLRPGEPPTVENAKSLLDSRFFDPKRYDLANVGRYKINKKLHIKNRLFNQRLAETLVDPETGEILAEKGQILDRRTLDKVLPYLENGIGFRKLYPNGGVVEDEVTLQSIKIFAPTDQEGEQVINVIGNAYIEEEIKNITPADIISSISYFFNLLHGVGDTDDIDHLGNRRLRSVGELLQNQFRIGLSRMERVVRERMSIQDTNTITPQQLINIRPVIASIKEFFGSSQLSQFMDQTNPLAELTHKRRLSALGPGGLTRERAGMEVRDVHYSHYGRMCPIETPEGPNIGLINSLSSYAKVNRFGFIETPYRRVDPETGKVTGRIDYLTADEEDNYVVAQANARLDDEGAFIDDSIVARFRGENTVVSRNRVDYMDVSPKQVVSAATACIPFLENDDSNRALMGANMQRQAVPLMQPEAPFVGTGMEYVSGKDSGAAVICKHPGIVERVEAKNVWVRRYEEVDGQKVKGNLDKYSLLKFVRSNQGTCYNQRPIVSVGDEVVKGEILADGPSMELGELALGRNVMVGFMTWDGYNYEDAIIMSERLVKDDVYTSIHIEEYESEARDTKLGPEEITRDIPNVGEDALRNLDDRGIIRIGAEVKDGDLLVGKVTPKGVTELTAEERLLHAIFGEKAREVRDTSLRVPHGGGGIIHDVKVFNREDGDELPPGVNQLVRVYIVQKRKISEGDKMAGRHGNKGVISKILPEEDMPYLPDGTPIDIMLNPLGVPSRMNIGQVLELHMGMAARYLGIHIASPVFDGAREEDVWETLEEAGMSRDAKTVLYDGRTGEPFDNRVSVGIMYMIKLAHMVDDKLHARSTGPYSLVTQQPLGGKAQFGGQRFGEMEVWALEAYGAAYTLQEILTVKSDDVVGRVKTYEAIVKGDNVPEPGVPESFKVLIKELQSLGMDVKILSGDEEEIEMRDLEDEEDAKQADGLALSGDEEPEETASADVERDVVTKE

“SigA (43 kDa) (from UniProt P06224 1-371) (natural protein)”: the relative fraction of RNAP bound to SigA, diamide stress was 58.1% and the relative fraction of RNAP bound to SigA, no stress is 61.5%.

B1: Spx (15 kDa) (natural protein)
chain: MVTLYTSPSCTSCRKARAWLEEHEIPFVERNIFSEPLSIDEIKQILRMTEDGTDEIISTRSKVFQKLNVNVESMPLQDLYRLINEHPGLLRRPIIIDEKRLQVGYNEDEIRRFLPRKVRSFQLREAQRLAN
In turn, B1 returned a relative fraction of RNAP bound to Spx, diamide stress of 21.6% and a relative fraction of RNAP bound to Spx, no stress of 11%.
